Holding throughout (test): fluorescence polarisation; FITC-tagged peptide ('2 nm' [sic]) with importin two-fold serially diluted from 4.5 µM across 23 wells, 200 µl, GST Buffer A (50 mM Tris, 125 mM NaCl); three independent experiments
For orientation: Fluorescence polarisation rises when a labelled molecule tumbles more slowly, as on binding a larger partner.

Assay [1] concerns the target Synthetic FITC labelled AAV 09YN Cap-BR peptide (residues 117-167).
The target in assay [2] is AAV 09YN Cap-BR-mMINOR (FITC labelled peptide, residues 117-167, minor site mutant).
In assay [3] the target is AAV 09YN Cap-BR-mMINOR+mMAJOR (FITC labelled peptide, residues 117-167, minor and major site mutant).
Assay [4] has as its target AAV 09YN Cap-BR-mMAJOR (FITC labelled peptide, residues 117-167, major site mutant).

By Kd is commonly meant the concentration at which binding is half-saturated. Read a low Kd as higher affinity. As for “Human importin α3 lacking the IBB domain (hImpα3DIBB) (domain or fragment)”, the Kd in assay [1] came out at 1 nM; in assay [2] it was 1.6 nM; in assay [3], 1.4 nM; in assay [4], 1.2 nM.

In the case of “Human importin α1 lacking the IBB domain (hImpα1DIBB) (domain or fragment)”, the Kd in assay [1] turned out to be 483 nM.

On to “Human importin α7 lacking the IBB domain (hImpα7DIBB) (domain or fragment)”, for which the Kd in assay [1] was found to be 11 nM.

“Human importin α5 lacking the IBB domain (hImp5DIBB) (domain or fragment)”: the dissociation constant (Kd) in assay [1] came out at 862 nM.

“Human importin β (hImpβ) (from UniProt Q14974 1-876) (natural protein)” yielded a Kd in assay [1] of 1140 nM.

Source of the values: article PMC10999750.
